Publication PMC5138414, “Structural Basis for Redox Regulation of Cytoplasmic and Chloroplastic Triosephosphate Isomerases from Arabidopsis thaliana” (Frontiers in Plant Science, 2016)

Substrate: O=CC(O)COP(=O)(O)O
Assay: purified protein
Type: biochemical, Arabidopsis thaliana
Conditions: G3P to DHAP direction, 0-4.0 mM G3P (DL-G3P supplied), TEA pH 7.4, 10 mM EDTA, 0.01% BSA, 0.2 mM NADH, apparent constant

Protein	Km	kcat	kcat/Km
pdTPI (Arabidopsis thaliana) (protein, homodimer) MAGSGKFFVGGNWKCNGTKDSIAKLISDLNSATLEADVDVVVSPPFVYIDQVKSSLTDRIDISGQNSWVGKGGAFTGEISVEQLKDLGCKWVILGHSERRHVIGEKDEFIGKKAAYALSEGLGVIACIGEKLEEREAGKTFDVCFAQLKAFADAVPSWDNIVVAYEPVWAIGTGKVASPQQAQEVHVAVRGWLKKNVSEEVASKTRIIYGGSVNGGNSAELAKEEDIDGFLVGGASLKGPEFATIVNSVTSKKVAA	400 ± 20 µM	2340 ± 41.6 s⁻¹	5.84e+06 M⁻¹ s⁻¹
cTPI (Arabidopsis thaliana) (protein, homodimer) MARKFFVGGNWKCNGTAEEVKKIVNTLNEAQVPSQDVVEVVVSPPYVFLPLVKSTLRSDFFVAAQNCWVKKGGAFTGEVSAEMLVNLDIPWVILGHSERRAILNESSEFVGDKVAYALAQGLKVIACVGETLEEREAGSTMDVVAAQTKAIADRVTNWSNVVIAYEPVWAIGTGKVASPAQAQEVHDELRKWLAKNVSADVAATTRIIYGGSVNGGNCKELGGQADVDGFLVGGASLKPEFIDIIKAAEVKKSA	480 ± 50 µM	2560 ± 43.9 s⁻¹	5.34e+06 M⁻¹ s⁻¹
